# B1: Structural maintenance of chromosomes protein 5 (Schizosaccharomyces pombe (strain ATCC 38366 / 972)), O13710 (parent)
# chain: MDGLRPSKRRKSNPLYSDYALGSIVRIKLVNFVTYDYCELFPGPYLNLIIGPNGTGKSTIVSAICIGLGWPPKLLGRAKEAREFIKYGKNTATIEIEMKYRDDETVTITRQISQDKSSSFSINREACATSSITSLMDTFNVQLNNLCHFLPQDRVAEFAQLDPYSRLMETERAIDHEGLLPAHEKLIDLRKREREILQNKNQGQSTLNSLKDRQQALEKEVNIFKEREKIKSYIEMLGLAKMLVIYREKTNVFNQLRADKKKLKKDLKDLVEEFQPILDKGEELRSDLKLKDDTFNDYSSASMELNTSNLRARASFSNFMENEKKLYEKVNTNRTLLRNANLTLNEAQQSVKSLTERQGPRPSDNGVQDLQEKMQEVNAEKLQHENEKLESSHELGSIRTLKAQKLIDLDNIKRELSYYNDATKRKLDFMSSAPGWEDAYQTYQLLKEYESAFEAPAYGPIYMNLKCKEKGFAALIEGFFRTDTFRTFIMSNYNDYLKLMDLITSKTKYTPTIREFSSERKKKIEDFEPPCSREKLQSFGFDGYVIDFLEGPEVVLVALCHMLKIHQIPIAKRELPPASVNALNNFRLANGDPVLKTYLAGSSIHLVFRSAYGDREITRRTDPLPSRSIYFSENVEMDLVKRKEEQLNAQLSQLENLQNEERKLQEKVNEHESLLSRTNDILSTLRKERDEKLIPIHEWQQLQERIEHQTLLLRQREKVPEQFAAEIEKNEDIRKENFEALMNSVLKVKENSIKATNNFEKMLGSRLNVIEAKYKLEKHEMDANQVNARLTEVQDRLKDITDKLASAREDAMSLYGSVVDSLQTQSSDRQTAITELNEEFATSSEVDNKISIEETKLKFMNVNSYVMEQYDARKKEIEELESKMSDFDQSVEELQDEMNSIKEDWVSKLEENVQCISDRFSKGMSGMGYAGEVRLGKSDDYDKWYIDILVQFREEEGLQKLTGQRQSGGERSVSTIMYLLSLQGLAIAPFRIVDEINQGMDPRNERVVHRHIVNSVCDNAVSQYFLVTPKLLPDLTYHRNLKVLCICNGAWLPATFRTSLSTYFEKLKKSALISSS
# partner: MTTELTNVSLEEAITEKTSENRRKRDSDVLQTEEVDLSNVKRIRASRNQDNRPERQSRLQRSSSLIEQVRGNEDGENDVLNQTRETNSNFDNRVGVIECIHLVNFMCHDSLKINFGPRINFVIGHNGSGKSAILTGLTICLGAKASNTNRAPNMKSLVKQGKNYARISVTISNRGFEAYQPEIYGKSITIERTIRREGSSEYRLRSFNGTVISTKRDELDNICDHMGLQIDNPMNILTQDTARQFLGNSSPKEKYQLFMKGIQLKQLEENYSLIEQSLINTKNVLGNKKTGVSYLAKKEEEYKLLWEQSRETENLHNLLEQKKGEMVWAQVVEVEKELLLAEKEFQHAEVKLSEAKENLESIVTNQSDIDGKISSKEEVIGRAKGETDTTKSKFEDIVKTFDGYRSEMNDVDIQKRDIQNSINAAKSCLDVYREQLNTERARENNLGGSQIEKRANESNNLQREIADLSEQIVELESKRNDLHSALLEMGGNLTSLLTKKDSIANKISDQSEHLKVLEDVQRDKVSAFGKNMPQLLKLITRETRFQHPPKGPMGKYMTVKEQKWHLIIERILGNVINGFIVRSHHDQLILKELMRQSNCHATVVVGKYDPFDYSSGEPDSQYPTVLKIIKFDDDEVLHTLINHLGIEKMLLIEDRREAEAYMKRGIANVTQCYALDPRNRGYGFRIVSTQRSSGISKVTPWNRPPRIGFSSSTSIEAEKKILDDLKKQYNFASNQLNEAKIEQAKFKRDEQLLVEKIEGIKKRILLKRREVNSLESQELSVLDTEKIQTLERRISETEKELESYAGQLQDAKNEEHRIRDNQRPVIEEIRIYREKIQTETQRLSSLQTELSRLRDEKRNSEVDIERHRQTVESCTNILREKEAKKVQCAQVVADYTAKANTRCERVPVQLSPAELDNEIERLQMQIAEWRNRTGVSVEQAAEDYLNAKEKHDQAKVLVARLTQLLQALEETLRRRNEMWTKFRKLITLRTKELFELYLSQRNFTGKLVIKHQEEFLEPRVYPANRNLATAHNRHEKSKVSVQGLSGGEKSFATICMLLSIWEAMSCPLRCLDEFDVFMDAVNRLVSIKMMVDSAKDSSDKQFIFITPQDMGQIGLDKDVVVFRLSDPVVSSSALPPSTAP
# B2: Structural maintenance of chromosomes protein 6 (Homo sapiens), Q96SB8 (parent)
# chain: MAKRKEENFSSPKNAKRPRQEELEDFDKDGDEDECKGTTLTAAEVGIIESIHLKNFMCHSMLGPFKFGSNVNFVVGNNGSGKSAVLTALIVGLGGRAVATNRGSSLKGFVKDGQNSADISITLRNRGDDAFKASVYGNSILIQQHISIDGSRSYKLKSATGSVVSTRKEELIAILDHFNIQVDNPVSVLTQEMSKQFLQSKNEGDKYKFFMKATQLEQMKEDYSYIMETKERTKEQIHQGEERLTELKRQCVEKEERFQSIAGLSTMKTNLESLKHEMAWAVVNEIEKQLNAIRDNIKIGEDRAARLDRKMEEQQVRLNEAEQKYKDIQDKLEKISEETNARAPECMALKADVVAKKRAYNEAEVLYNRSLNEYKALKKDDEQLCKRIEELKKSTDQSLEPERLERQKKISWLKERVKAFQNQENSVNQEIEQFQQAIEKDKEEHGKIKREELDVKHALSYNQRQLKELKDSKTDRLKRFGPNVPALLEAIDDAYRQGHFTYKPVGPLGACIHLRDPELALAIESCLKGLLQAYCCHNHADERVLQALMKRFYLPGTSRPPIIVSEFRNEIYDVRHRAAYHPDFPTVLTALEIDNAVVANSLIDMRGIETVLLIKNNSVARAVMQSQKPPKNCREAFTADGDQVFAGRYYSSENTRPKFLSRDVDSEISDLENEVENKTAQILNLQQHLSALEKDIKHNEELLKRCQLHYKELKMKIRKNISEIRELENIEEHQSVDIATLEDEAQENKSKMKMVEEHMEQQKENMEHLKSLKIEAENKYDAIKFKINQLSELADPLKDELNLADSEVDNQKRGKRHYEEKQKEHLDTLNKKKRELDMKEKELEEKMSQARQICPERIEVEKSASILDKEINRLRQKIQAEHASHGDREEIMRQYQEARETYLDLDSKVRTLKKFIKLLGEIMEHRFKTYQQFRRCLTLRCKLYFDNLLSQRAYCGKMNFDHKNETLSISVQPGEGNKAAFNDMRALSGGERSFSTVCFILSLWSIAESPFRCLDEFDVYMDMVNRRIAMDLILKMADSQRFRQFILLTPQSMSSLPSSKLIRILRMSDPERGQTTLPFRPVTQEEDDDQR
# Variants of: B1
# Conditions: with smc6_schpo smc6, P53692
row,effect of a mutation on the interaction,Variant
1,decreasing interaction,G540R

# Variants of: B2
# Conditions: with smc5_human SMC5, Q8IY18
# Chain of smc5_human SMC5, Q8IY18 (Q8IY18 whole entry): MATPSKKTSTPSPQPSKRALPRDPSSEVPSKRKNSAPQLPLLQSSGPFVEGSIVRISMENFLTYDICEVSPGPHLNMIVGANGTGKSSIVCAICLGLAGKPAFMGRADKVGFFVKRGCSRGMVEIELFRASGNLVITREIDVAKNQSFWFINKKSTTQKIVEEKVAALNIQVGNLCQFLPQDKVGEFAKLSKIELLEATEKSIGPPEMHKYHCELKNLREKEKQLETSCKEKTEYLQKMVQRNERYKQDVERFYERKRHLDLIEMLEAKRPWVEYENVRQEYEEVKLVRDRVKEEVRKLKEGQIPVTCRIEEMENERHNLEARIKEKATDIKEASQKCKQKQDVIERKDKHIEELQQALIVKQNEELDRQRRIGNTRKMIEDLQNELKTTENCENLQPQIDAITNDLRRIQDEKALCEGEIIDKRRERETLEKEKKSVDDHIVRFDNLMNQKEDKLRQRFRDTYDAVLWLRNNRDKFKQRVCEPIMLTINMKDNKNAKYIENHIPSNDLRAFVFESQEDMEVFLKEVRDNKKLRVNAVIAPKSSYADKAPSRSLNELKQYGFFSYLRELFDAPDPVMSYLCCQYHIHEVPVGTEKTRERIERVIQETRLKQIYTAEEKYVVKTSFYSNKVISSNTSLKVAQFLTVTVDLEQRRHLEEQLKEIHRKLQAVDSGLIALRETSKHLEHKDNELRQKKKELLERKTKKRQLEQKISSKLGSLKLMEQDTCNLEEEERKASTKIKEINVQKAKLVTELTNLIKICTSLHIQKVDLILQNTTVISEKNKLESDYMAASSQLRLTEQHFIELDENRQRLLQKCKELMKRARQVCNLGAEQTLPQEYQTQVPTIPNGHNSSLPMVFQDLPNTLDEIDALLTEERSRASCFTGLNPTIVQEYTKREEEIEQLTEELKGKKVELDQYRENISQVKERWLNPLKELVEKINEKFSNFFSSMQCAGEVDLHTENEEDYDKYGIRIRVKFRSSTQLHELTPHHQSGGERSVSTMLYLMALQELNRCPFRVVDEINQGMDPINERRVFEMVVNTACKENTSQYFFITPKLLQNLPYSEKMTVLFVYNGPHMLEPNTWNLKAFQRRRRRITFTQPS
row,effect of a mutation on the interaction,Variant
1,decreasing interaction,G506R
